The values below come from PMC7610980.

The target in this experiment is bat RaTG13 spike (S) glycoprotein ectodomain (bat coronavirus RaTG13). As to the kind of experiment: BLI. For orientation: Biolayer interferometry detects binding as a change in optical thickness at a sensor tip.

human ACE2 ectodomain (residues 19-615), sequence (Q9BYF1 19-615): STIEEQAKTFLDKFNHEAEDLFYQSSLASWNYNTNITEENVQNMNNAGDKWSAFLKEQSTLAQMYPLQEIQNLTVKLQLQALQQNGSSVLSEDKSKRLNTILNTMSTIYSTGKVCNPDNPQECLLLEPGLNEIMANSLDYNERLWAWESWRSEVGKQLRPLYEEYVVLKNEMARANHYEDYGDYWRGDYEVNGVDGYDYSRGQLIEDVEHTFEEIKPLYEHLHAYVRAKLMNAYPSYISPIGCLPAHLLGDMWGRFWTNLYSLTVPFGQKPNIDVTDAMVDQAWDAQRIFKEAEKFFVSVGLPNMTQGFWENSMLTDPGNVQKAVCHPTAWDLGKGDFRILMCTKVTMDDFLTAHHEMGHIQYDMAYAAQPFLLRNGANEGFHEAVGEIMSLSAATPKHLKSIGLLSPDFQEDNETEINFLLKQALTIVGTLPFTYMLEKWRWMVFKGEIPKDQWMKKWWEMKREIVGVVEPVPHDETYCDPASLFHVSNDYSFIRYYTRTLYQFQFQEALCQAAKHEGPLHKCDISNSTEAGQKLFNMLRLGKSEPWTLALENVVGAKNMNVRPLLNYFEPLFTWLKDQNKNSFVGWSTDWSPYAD

For the substance “human ACE2 ectodomain (residues 19-615) (from UniProt Q9BYF1-1 19-615) (receptor)”, the Kd is > 40 µM.

The Kd is the concentration at which binding is half-saturated. A high value points to a looser complex.
